According to patent publication US11091749B2, “Deimmunized lysostaphin and methods of use” (TRUSTEES OF DARTMOUTH COLLEGE, priority 2014, dated 2021):

Experiments:
[1] = tested on: S. aureus cells; test: Lytic assay using purified protein (SYTOX kinetic assay); assay type: cell-based, Staphylococcus aureus
Experimental: S. aureus cells were grown either to mid-log or to saturation in tryptic soy broth (TSB) at 37° C. with shaking. The cells were harvested by centrifugation and washed once in phosphate buffered saline (PBS: 2.7 mM KCl, 1.5 mM KH2PO4, 8.9 mM Na2HPO4, 136.9 mM NaCl, pH 7.4). The assay was performed in 96-well, black, clear bottom plates from Greiner Bio-One (Monroe, N.C.). The final (250 μl) reaction was composed of 10 μl of P. pastoris culture supernatant, S. aureus cells at OD600=1.5, and 5 μM SYTOX Green (Thermo Fisher Scientific; Waltham, Mass.), all in PBS. Data were collected using SPECTRAMAX GEMINI Fluorescence Microplate Reader (Molecular Devices; Sunnyvale, Calif.) using an excitation/emission of 504/523 nm, and rates were determined from the slope of the steepest linear portion of the trace. Each assay was performed with 500 ng of commercially-sourced lysostaphin (ssLys) as an internal control.
The activity of purified lysostaphin variants was examined using the SYTOX kinetic assay as previously described in Chapter 2, Section 3.2.6. 200 ng of purified enzyme (instead of culture supernatant) was used in each reaction.

[2] = tested on: MRSA strain 3425-3; test: MIC assay; assay type: cell-based, Staphylococcus aureus; details: biological duplicates
Experimental: (§1) The MICs of wild-type lysostaphin and its variants were determined by adding 2-fold serial dilutions of enzymes into wells of a polypropylene 96-well plate (Costar 3879) containing ˜40,000 S. aureus SA113 (or S. aureus 6445, 3425-1, 3425-3) cells in Muller Hinton broth (BD) supplemented with 2% NaCl and 0.1% bovine serum albumin, yielding a total volume of 100 μl. Plates were grown overnight at 37° C. with shaking at 900 rpm on an Orbit P4 orbital shaker (Labnet; Edison, N.J.). […] The assay was performed in triplicate for each enzyme.

[3] = tested on: S. aureus 3425-1; test: MIC assay; assay type: cell-based, Staphylococcus aureus; details: biological duplicates
Experimental: as §1

[4] = tested on: S. aureus SA113; test: MIC assay; assay type: cell-based, Staphylococcus aureus
Experimental: as §1

[5] = tested on: S. aureus 6445; test: MIC assay; assay type: cell-based, Staphylococcus aureus; details: biological duplicates
[6] = Thermostability by differential scanning fluorimetry; assay type: physicochemical
Experimental: The relative thermostability of the lysostaphin variants was determined by differential scanning fluorimetry, as previously described (Niesen, et al. (2007) Nat. Protocols 2:2212-2221). Proteins and SYPRO Orange were diluted in PBS (final concentrations of 100 μg/ml and 5× in 20 μl reaction volume, respectively), and fluorescence was quantified at 1-degree increments from 25 to 94° C. using an Applied Biosystems ABI 7500 fast real-time PCR system. The reactions were performed using PCR Plates for Fast Thermocyclers (VWR; Radnor, Pa.). Fluorescence was quantified using the preset TAMRA parameters. Melting temperatures were determined by data analysis with the ‘DSF Analysis v3.0.xlsx’ EXCEL sheet and GraphPad Prism v.6.02 software.

[7] = tested on: pooled splenocytes; test: Transgenic DR4 murine immunogenicity study (memory response, splenocyte proliferation); assay type: in vivo; details: wild-type LST primed mice, 100 μg rechallenge
Experimental: Twelve female 6-8 week old DR4 transgenic mice (Abb Knockout/Transgenic HLA-DR4; B6.129S2-H2-Ab1tm1GruTg(HLA-DRA/H2-Ea,HLA-DRB1*0401/H2-Eb)1Kito; Taconic Farms, Germantown, N.Y.) were divided into four groups of three each and immunized with 50 μl subcutaneous injections of wild-type LST using one of the following four schemes: (i) initial immunization with 100 μg enzyme in CFA, followed by 100 μg boosts in incomplete Freund's adjuvant (IFA) on days 14 and 28; (ii) initial immunization with 20 μg enzyme in CFA, followed by 20 μg boosts in IFA on days 14 and 28; (iii) initial immunization with 100 μg enzyme in PBS buffer, followed by 100 μg boosts in PBS buffer on days 7, 14, 21 and 28; (iv) initial immunization with 20 μg enzyme in PBS buffer, followed by 20 μg boosts in PBS buffer on days 7, 14, 21 and 28. Serum IgG antibody titers against wild-type LST were measured on days 13, 20, 27, 34, and 62. […] Mice were housed without further manipulation until week 23 of the study, at which time serum IgG antibody titers were again measured and mice were divided into two experimental arms having equivalent average antibody titers. Note that during the week 9 to week 23 recovery period, two mice (the lowest titer 100 μg no adjuvant and one of the high titer 100 μg adjuvant) began suffering hair loss, weight loss, and reduced mobility and were sacrificed as per the IACUC approved protocol. […]

[8] = tested on: pooled splenocytes; details: mouse, in vivo
Description: HUMI mice were constructed by surgical transplantation of human bone marrow, liver, and thymus tissues into NOD/SCID/γc^−/− mice (Dartmouth Transgenics & Genetic Constructs Shared Resource) as described (Brainard, et al. (2009) J. Virol. 83:7305-21). All animals were humanized from the same human donor. Mice used experimentally had human lymphocytes as a minimum of 25% of their total peripheral blood leukocytes. Fourteen weeks post-engraftment, 12 female HUMI mice were divided into 3 groups of 4 each and immunized with a single 50 μl subcutaneous injection of 100 μg wild-type LST, 100 μg variant Flex 5, or 100 μg variant Flex 9 in complete Freund's adjuvant (CFA). Two weeks following the immunization, mice were sacrificed and splenocytes were harvested and pooled for each group. Pooled splenocytes (5×10^5/well) were plated in triplicate into 96-well plates with medium containing 5% fetal calf serum, 1-glutamine, antibiotics, and a final concentration of 10 μg/ml LST or variants (or 1% DMSO as a control). […]
In vivo immunogenicity was evaluated using NOD/SCID/γc^−/− mice that had been surgically humanized with human immune cells, liver tissue, and thymus tissue (HUMI mice). […] Cell proliferation was measured by tritiated thymidine uptake at 72 hours.

[9] = tested on: MRSA strain USA400; test: In vitro inhibitory activity (MIC); assay type: cell-based, Staphylococcus aureus
Description: F11, P12 and F13 were screened for in vitro inhibitory activity against MRSA strain USA400 (FIG. 7).

[10] = tested on: MRSA strain USA400; test: In vivo efficacy of F11, intraperitoneal MRSA challenge; set-up: species or system C57BL/6 mice; details: 100 μg single bolus i.v. 1 h after 2×10^8 MRSA i.p.
Experimental: Mice were challenged with an intraperitoneal injection of 2×10^8 MRSA strain USA400, and 1 hour later the mice were treated with 100 μg wild-type LST, F11 or PBS. The percent survival is shown.
The in vivo efficacy of the F11 variant was further analyzed in C57BL/6 mice. Mice were challenged with an intraperitoneal injection of 2×10^8 MRSA strain USA400, and 1 hour later the mice were treated with 100 μg wild-type LST, F11 or PBS, administered as a single bolus intravenous injection. The survival rate for both protein treatments was 1/3. The 100 μg dosage was selected because wild-type LST is known to be only partially efficacious at this dose.

[11] = Immunogenicity of F13, antibody titers by ELISA (CFA); assay type: in vivo, DR4 HLA transgenic mice; details: 100 μg s.c. in CFA, fourteen days
Experimental: (§2) The immunogenicity of the F13 variant was compared to wild-type LST in DR4 HLA transgenic mice, i.e., mice bearing partially humanized immune systems. 100 μg of wild-type LST or variant F13 were mixed with complete Freund's adjuvant and injected subcutaneously into DR4 mice. Fourteen days later, antibody titers were measured by ELISA. Variant F13 yielded more than 200-fold lower antibody titers compared to wild-type LST. To assess the impact of antibody titers on antibacterial efficacy, the mice were challenged with an intraperitoneal injection of 2×10^8 MRSA strain USA400, and 1 hour later the mice were treated with 500 μg wild-type LST, variant F13, or PBS, administered as a single bolus intravenous injection. Both mice receiving PBS sham treatments died as did both mice treated with wild-type LST. In contrast, both mice treated with variant F13 survived. Thus, the reduced immunogenicity of F13 conferred enhanced therapeutic efficacy in vivo.

[12] = tested on: MRSA strain USA400; test: Efficacy of F13 in immunized mice, MRSA challenge; assay type: in vivo, DR4 HLA transgenic mice; details: 500 μg i.v. 1 h after 2×10^8 MRSA i.p.
Experimental: as §2

B1: Flex 5: lysostaphin variant K46H, I99Q, N121G, S122D (protein, UniProt P10547 248-493, looked up, variant K46H I99Q N121G S122D)
Lysostaphin: AATHEHSAQWLNNYKKGYGYGPYPLGINGGMHYGVDFFMNIGTPVHAISSGKIVEAGWSNYGGGNQIGLIENDGVHRQWYMHLSKYNVKVGDYVKAGQQIGWSGSTGYSTAPHLHFQRMVGDFSNSTAQDPMPFLKSAGYGKAGGTVTPTPNTGWKTNKYGTLYKSESASFTPNTDIITRTTGPFRSMPQSGVLKAGQTIHYDEVMKQDGHVWVGYTGNSGQRIYLPVRTWNKSTNTLGVLWGTIK
% Wild-Type Activity ([1]; 200 ng purified enzyme): 61% | % WT Lytic Rate ([1]; biological duplicates): 70 ± 30% | MIC Strain 3425-3 [2]: 0.05 µg/mL | MIC Strain 3425-1 [3]: 0.11 µg/mL | MIC ([4]; S. aureus SA113, purified enzyme): 0.1042 µg/mL | MIC Strain SA113 ([4]; biological duplicates): 0.02 µg/mL | MIC Strain 6445 [5]: 0.06 µg/mL | Tm ([6]; SYPRO Orange, PBS): 55.7 °C | Tm ([6]; biological duplicates): 55.8 °C | proliferation of pooled splenocytes [7]: at or below background levels | reduced proliferative response relative to wild-type group [8]: 50%

B2: F11: variant combining cell wall binding domain mutations with Flex 9 (or derivative) catalytic domain (Table 22) (protein)
chain: AATHEHSAQWLGNYKKGYGYGPYPLGINGGMHYGVDFFMNEGTPVKAISSGKIVEAGWSNYGGGNQIGLIENDGVHRQWYMHMSKYNVKVGDYVEAGQQIGWSGSTGYSTAPHLHFQRMVGDFGNPTAQDPMPFLKSAGYGKAGGTVTPTPNTGWKTNKHGTLYKSESGSFTPNTDIITRTTGPFTSMPQSGVLKAGQTIHYDEVMKQDGHVWVGYTGNSGQRIYLPVRTWQKSTNTLGVLWGTIK
MIC activity relative to wild-type LST [9]: 12.5% | survival rate [10]: 1/3

B3: F13: variant combining cell wall binding domain mutations with Flex 9 (or derivative) catalytic domain (Table 22) (protein)
chain: AATHEHSAQWLGNYKKGYGYGPYPLGINGGMHYGVDFFMNEGTPVKAISSGKIVEAGWSNYGGGNQIGLIENDGVHRQWYMHMSKYNVKVGDYVEAGQQIGWSGSTGYSTAPHLHFQRMVGDFGNPTAQDPMPFLKSAGYGKAGGTVTPTPNTGWKTNKHGTLYKNESGSFTPNTDIITRTTGPFTSMPQSGVLKAGQTIHYDEVMKQDGHVWVGYTGNSGQRIYLPVRTWQKSTDTLGVLWGTIK
MIC activity relative to wild-type LST [9]: 12.5% | retained original MIC activity after heating ([9]; 50° C. for 1 hour prior to assay): 25% | fold lower antibody titers compared to wild-type LST [11]: more than 200 fold | survival [12]: survived
